Measurements as given in patent US20240409643A1, “ANTI-NMDAR2B ANTIBODIES, ANTIBODY-DRUG CONJUGATES, AND CHIMERIC ANTIGEN RECEPTORS, AND COMPOSITIONS AND METHODS OF USE” (THE TRUSTEES OF DARTMOUTH COLLEGE, priority 2021, published 2024).
Substitutions are numbered along the chain they refer to. “Also recorded” adds a separate entry of the source. Ends that are not written are not given here. * marks the point of attachment. 125I = [125I]*

T1: 125I-labeled NMDAR2B immunogen peptide (human)
T1 construct: also called ^125I-labeled (radiolabel on the N-terminal tyrosine) NMDAR2B immunogen peptide
T1 peptide: Y(125I)KDAHEKDDF-NH2

T2: NMDAR2B immunogen peptide, free (YKDAHEKDDF-amide) (human)
T2 construct: Free form: no radiolabel and no further conjugation; also called free NMDAR2B immunogen peptide; free peptide
T2 peptide: YKDAHEKDDF-NH2

T3: Biotinylated NMDAR2B immunogen peptide (human, also: biotinylated, site not given here)
T3 construct: also called biotinylated peptide
T3 peptide: YKDAHEKDDF-NH2

B1: Fab9 (Fab, V domains shown)
VH: EVQLVESGGGLVQPGGSLRLSCAASGFNLSYSSMHWVRQAPGKGLEWVASISPYSGSTYYADSVKGRFTISADTSKNTAYLQMNSLRAEDTAVYYCARYYWYYYYGFDYWGQGTLVTVSS
VL: DIQMTQSPSSLSASVGDRVTITCRASQSVSSAVAWYQQKPGKAPKLLIYSASSLYSGVPSRFSGSRSGTDFTLTISSLQPEDFATYYCQQYVGYGSPITFGQGTKVEIK
notes: also called Ab9 (IgG form with the same VH and VL)
B2: Fab4 (Fab, V domains shown)
VH: EVQLVESGGGLVQPGGSLRLSCAASGFNLYYYSIHWVRQAPGKGLEWVAYISSYYGYTYYADSVKGRFTISADTSKNTAYLQMNSLRAEDTAVYYCARYYPGGWHAFDYWGQGTLVTVSS
VL: B1 VL with V92Y, S96Y
notes: also called Ab4 (IgG form with the same VH and VL)
B3: Fab10 (Fab, V domains shown)
VH: EVQLVESGGGLVQPGGSLRLSCAASGFNLYSSYMHWVRQAPGKGLEWVASISSSYGYTYYADSVKGRFTISADTSKNTAYLQMNSLRAEDTAVYYCARTVRGSKKPYFSGWAMDYWGQGTLVTVSS
VL: DIQMTQSPSSLSASVGDRVTITCRASQSVSSAVAWYQQKPGKAPKLLIYSASSLYSGVPSRFSGSRSGTDFTLTISSLQPEDFATYYCQQGSYLITFGQGTKVEIK
notes: also called Ab10 (IgG form with the same VH and VL)
B4: Fab8 (Fab, V domains shown)
VH: B3 VH with L29I, S31Y
VL: B3 VL with G91A
notes: also called Ab8 (IgG form with the same VH and VL)
B5: Fab6 (Fab, V domains shown)
VH: B3 VH with L29I, M34I
VL: B3 VL with S92G, Y93S
notes: also called Ab6 (IgG form with the same VH and VL)
B6: Fab5 (Fab, V domains shown)
VH: B3 VH with S52Y, G56S, Y57S
VL: B3 VL with S92A, Y93G
notes: also called Ab5 (IgG form with the same VH and VL)
B7: Fab7 (Fab, V domains shown)
VH: B3 VH with L29F, Y30S, Y33S, M34I
VL: B3 VL with Y93H
notes: also called Ab7 (IgG form with the same VH and VL)

Tests used:
[1] = test system: NCI H82 cells; experiment: In vivo treatment of NCI H82 tumors in nu/nu mice with ifenprodil
Protocol: (§1) Anti-NMDA receptor agent: ifenprodil was used as an exemplary NMDA receptor antagonist
Mouse treatment: Male nu/nu mice were injected subcutaneously with NCI H82 cells (about 10^7 cells/mouse). Tumors became obvious after 2-3 weeks and commenced growing rapidly. Animals were divided into two groups. […] The other group was treated with saline vehicle. Changes in the tumor size and body weight were recorded daily.

[2] = cited from earlier work
[3] = test system: LNCAP cells; experiment: LNCAP cell viability assay (AlamarBlue); type: cell-based; settings: for Effect on LNCAP cell viability: 48 hours incubation, % of fluorescence of vehicle treated cells
Protocol: LNCAP cells were plated in 96 well plates at 1-2×10^4 cells/well. The cells were incubated with PBS with glycine containing albumin (1.25 mg/ml) in the presence of different concentrations of a NMDAR receptor antagonist, MK-801 (also known as dizocilpine) or memantine, dilutions of the anti-NMDAR1 antisera described in Example 1 or anti-NMDAR1 IgG isolated from such antisera, or vehicle only. Each group was run in quadruplicate. AlamarBlue® was later added to each well following an incubation period of 48 hours, and fluorescent readings were taken with excitation at 530-560 nm and emission at 590 nm and above on a SYNERGY™ HT Multi Detection Reader to (BioTek®). Cell viability (%) was calculated as % of fluorescence of vehicle treated cells at 48 hours.

[4] = test system: NCI H82 cells; experiment: In vivo combination treatment of NCI H82 tumors in nu/nu mice: cyclophosphamide followed by ifenprodil; settings: cyclophosphamide 75 mg/kg body weight daily for 3 days
Protocol: Anti-cancer agent: Cyclophosphamide, an alkylating agent, was used as an exemplary anti-cancer agent.
as §1
Mouse treatment: Male nu/nu mice were injected subcutaneously with NCI H82 cells (about 10^7 cells/mouse). […] Animals were divided into two groups. […] The other group was treated with saline vehicle. Changes in the tumor size were recorded daily.

[5] = target: T1, 125I-labeled NMDAR2B immunogen peptide; experiment: radioimmunoassay with 125I-labeled and free peptide
Protocol: Radioimmunoassay: Radioimmunoassay on Fab3 through Fab10 was performed using ¹²⁵I-labeled (radiolabel on the N-terminal tyrosine) and free (no radiolabel or additional conjugation) NMDAR2B immunogen peptides.

[6] = target: T4, BSA-coupled NMDAR2B immunogen peptide (human; bovine, UniProt P02769 25-607, carrier, cross-linked to the peptide with glutaraldehyde; C-terminal amide; coupled to BSA with glutaraldehyde); experiment: competition displacement ELISA, additional studies (FIG. 7B)
T4 construct: also called NMDAR2B immunogen peptide coupled to BSA; unlabeled BSA-coupled NMDAR2B immunogen peptide
Protocol: (§2) ELISA assay: 96 well plates (ELISA Microlon 66 (Greiner Bio-one); #655061) were coated with Affinipure anti-human IgG antibodies (which bind to Fabs) (Jackson Immunoresearch Laboratories; #109-005-0060). Each well was added with a 50 μl volume containing 5 ng or 10 ng of an appropriate Fab and another […] volume containing the NMDAR2B immunogen peptide in a range of 10 μg to 10 ng, followed by incubation at 4° C. for 24-48 hours. Plates were washed, and each well was incubated with the biotinylated peptide at 100 ng/ml for 30 minutes to one hour and then with HRP-conjugated streptavidin (Thermo Industries; Product #N100) was added at 1:10,000 dilution for 30 minutes. Plates were washed and incubated with a mixture of 0.007% H₂O₂ and Amplex® Ultrared Reagent (Molecular Probes) for one hour, and fluorescence was read at excitation at 550 nm and fluorescence at 590 nm on a SYNERGY™ HT Multi Detection Reader to (BioTek®).
ELISA assay: ELISA as in Example 6 was performed using the NMDAR2B immunogen peptide coupled to BSA (as prepared in Example 4) and the NMDAR2B immunogen peptide coupled to biotinylated BSA (as prepared in Example 7). Competition displacement curves were generated as repeated points in quadruplicate, and dissociation constants for respective Fabs to the BSA-coupled NMDAR2B immunogen peptide were calculated.

[7] = target: T2, NMDAR2B immunogen peptide, free …; experiment: competition ELISA against peptide coupled to biotinylated BSA
Protocol: as §2
ELISA assay: ELISA as in Example 6 was performed using the NMDAR2B immunogen peptide coupled to biotinylated BSA and then, to test competition, the free NMDAR2B immunogen peptide.

[8] = target: T3, Biotinylated NMDAR2B immunogen peptide; experiment: ELISA, Fab captured on anti-human IgG, streptavidin-HRP detection
Protocol: as §2

T4 sequence (P02769 25-607 limits assumed): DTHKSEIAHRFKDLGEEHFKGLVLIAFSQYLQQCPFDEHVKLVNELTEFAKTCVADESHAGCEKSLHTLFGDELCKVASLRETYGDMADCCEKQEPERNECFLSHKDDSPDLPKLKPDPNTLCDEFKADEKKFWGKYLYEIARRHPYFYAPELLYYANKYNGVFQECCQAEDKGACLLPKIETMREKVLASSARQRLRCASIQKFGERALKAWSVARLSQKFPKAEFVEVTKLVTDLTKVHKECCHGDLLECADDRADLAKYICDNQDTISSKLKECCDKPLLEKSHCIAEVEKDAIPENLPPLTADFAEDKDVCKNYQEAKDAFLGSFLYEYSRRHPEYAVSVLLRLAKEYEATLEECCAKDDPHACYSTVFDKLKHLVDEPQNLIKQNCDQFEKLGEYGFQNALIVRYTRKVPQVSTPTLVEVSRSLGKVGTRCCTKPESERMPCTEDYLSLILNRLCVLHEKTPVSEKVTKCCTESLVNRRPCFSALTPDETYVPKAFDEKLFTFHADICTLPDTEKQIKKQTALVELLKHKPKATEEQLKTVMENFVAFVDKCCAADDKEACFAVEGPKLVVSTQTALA

Molecule	binding result [5]	binding result [7]	binding result [8]	further results
CC(C(O)c1ccc(O)cc1)N1CCC(Cc2ccccc2)CC1 (centres unmarked) [ifenprodil]	–	–	–	Tumor growth with ifenprodil alone ([1]; animals that only received ifenprodil but not cyclophosphamide, after a day of decrease in size): continued to grow; Time for tumors to grow back to their original size ([1]; ifenprodil 2.5 mg/kg body weight intraperitoneally once daily): about 10 days; Tumor growth relative to original size ([1]; ifenprodil 2.5 mg/kg body weight intraperitoneally once daily, by two weeks of treatment, saline controls >6 times): < 2 times their original size; Tumor size relative to original size after initial shrinkage ([1]; ifenprodil 2.5 mg/kg body weight intraperitoneally once daily, in about a day): about 80%; Body weight versus saline control ([1]; over 8 days of treatment): no differences between groups; ED50 in mice [2]: about 350 mg/kg body weight
CC12CC3CC(C)(C1)CC(N)(C3)C2 [memantine]	–	–	–	Effect on LNCAP cell viability [3]: reduced cell viability in a does-dependent manner
C[C@]12N[C@H](Cc3ccccc31)c1ccccc12 [MK-801, dizocilpine]	–	–	–	Effect on LNCAP cell viability [3]: reduced cell viability in a does-dependent manner; Concentration at which the reduction of cell viability was statistically significant (p<0.01) ([3]; LNCAP cells, 48 hours): > 300 pM
O=P1(N(CCCl)CCCl)NCCCO1 (centres unmarked) [cyclophosphamide]	–	–	–	Effect of cyclophosphamide treatment on tumor growth [4]: does not inhibit tumor growth beyond the time of cyclophosphamide administration; also recorded: slowed but did not stop tumor growth
B1	no binding	no binding	no binding	Kd [6]: ~5 nM
B2	no binding	no binding	no binding	–
B3	no binding	no binding	no binding	–
B4	no binding	no binding	no binding	–
B5	no binding	no binding	no binding	–
B6	no binding	no binding	no binding	–
B7	no binding	no binding	no binding	–
